{
  "source": "the DeepSol protein solubility set",
  "data": [
    {"test": "soluble on expression in E. coli; label from the status in PepcDB or PDB records", "values": [
      {"sequence": "MGSDKIHHHHHHMFLRNMWYVAAFSADVKPGKCLARTFLNEPVVLFRTASGSLGALIDRCSHRAMPLSEGHVDGDIIRCPYHGLEFNAAGVCAHIPGQERIPAAANVRSYPVSERDGLIWIWMGEPEKADLRSIMSNPEHRDPGWSWRPYYMHVNSNWQLLVDNILDLTHVAYIHANTIGGNPQTHFNADMSVQFDGEKVTLLRKMPNSVPPKTYVAAGGFKGNVDRWQMVEYRPCGGNVLRVNAGACEVGTGAYEGRRDNGFTLLNVHGVTPETETTTHYIWTICTDAPRESGVPDMLFDQFYETICEDERALEAQQRRINDMPDMRFVGIASDGAVSRARLLLERLHENETAVTS", "soluble on expression in E. coli": "not soluble"},
      {"sequence": "MSLDRLIHWYNMAVYPSIFATMLPVDPRRALGAFLRSHRERLPPPPLALGRRRTPGWRREELAEACGVSLTWITWLEQGRDVSASPHALARLAEALHLAPAERGYLFELAGRRDPVSPVASDDGIPPAVLALPGHMNVPAYLLDRTWTARAWNSAASRLFTGWLDGDHDRNLLRFIFLSPAAPRLIADWDQRAHRVVAEFRADFSRRLRDPALQALVESLAAQSQAFRTLWHEQAVLDREGGERSFLNPARRFHQSTLILAANADIKLVSLVPMDGEEFEGHHHHHH", "soluble on expression in E. coli": "soluble"},
      {"sequence": "MAHHHHHHMLGKLGLRTEAYPFDFSRVTLDGLMHFIRNGFAEGFYPPGPLPYRPECVGPWVLFRGQHTAFAHFDLNDPHVQAHFQVKMRRFDAVLNSPERPVTFFRTVTARYPQQELALALDLEEAVARRNPSLDFRIVFMVHDQGLRANAVQLAPLSPRVTLWTLQYRGLPGDTLFDRTHTAYRTVMMHSVAESNWPAVNVGVATPPPATVAPAEARDFESGALRCDGAIRTDDVPLSDLTVDRFPWRSHDNLALIDGVASVGGTCAGIGSTKMLEDASAALQVEGRVRRKCRYCGDATYHAAGRPFRTERPFTDEEDQLVLIHLYQILTGGDKVAAVEKLAHEMRRGTYEVICRIQYLTNSSTKLMDSIDPASPSDS", "soluble on expression in E. coli": "not soluble"},
      {"sequence": "MGSDKIHHHHHHNENPDKPTDDVNYNMNEPRLASTLRGGLIIEGNVEQRLKPLQIDFYSQMTVDGGGWGTKNYIQDDEWNNLVWEEYLKQIASINIVIRSLTEKDKDAYANTIAFARIWRVYVHTLAADKFGPMPFPAYEIVEANPPYKSLKDIYDEYFRELDAAINGFNDSAQPIFSDAGIDLIYKNDVSKWKRFANSLRLRLAVRLTEVDQEKCIAEANAAISSPAGLISDKADNAYMPPKADGSWGQDYNYTMFQITWSGPICMSKSVEKLVTNIGGVAWPQGVVNQTSGVAVSSVHPEKVDPRAPKIFQPGIENGDWKGLVYGPKAEEANTGIYQSKQCAELGFIIKDGYPYKSRPYDLFLSEEVHFLKAELYARGFIAGDAKSEYEAGVRASFATWGVTSEVDDYLTSTEKNEAGTSARYDDQQGAGNTALEKIITQKYIAGIPDLAQEGWNDKRRLNLPRLDVAVYRDQAVYNNNDKDILKSANFIKRMRYPTKESLINATEYEKGKSMLGGKGDIVSTPLWWDKNSNYCTSSK", "soluble on expression in E. coli": "not soluble"},
      {"sequence": "LENDRTTFRIRNLDSGEIIWSGMGAVYPVYSPSFDHAADAFAFAFSSPADPPEIHLLRDAETKSSINSHLDGVSPYPAEIVEWKAKDGEDLYGILRLIDPKNPLIVYIHGGPTSFSYASFLDRTSIYLGYGFNVFAPNYRGSVGKGRRYAELNVGDLGGKDFDDVISGIEFLKNTGKIATDRIYITGGSYGGYMSALAVMKTDIFRASVSLFGISDWVSFHGVSNLHLWDRLHMDADPWAFKKYDEYSPIRIMHEPKTPTLLMHGIKDPYVPIGQYYEFYRFLKEKNCEVRMIVFPREGHGFTEKEHIRRQYMETIRFMKDH", "soluble on expression in E. coli": "not soluble"},
      {"sequence": "MGSDKIHHHHHHMSEIWRQCKGERHIRPLQGRLVRLVESQEQVATLQLVDTLEEQALLEELLESSKPPVPADAEPLHYLLKTPFRYPPLRWGSRFGRRHEPSLFYAALKLETAMAESAYYRCVLWSGMVVPPPSGRILSEHASFEAGWKVERGIRLQAPPFSDHEAALTDIADYRAPQELGSAMRSAGVQAFEYRSARCPERGCNVALFTPAAFTEKRPRNLTPWLCETTAGYVAFKPAHVPGSPKIFSWELFLVDGKLPHPA", "soluble on expression in E. coli": "not soluble"},
      {"sequence": "MSLNPPLPHFRYHPEPLASGSIEASATTCQCCGKARGYVYTGSPYSRHELPPGSLCPWCIADGSAAARYEASFSDDYPLLDAGVAADIVTEVCERTPGYTSWQRERWLVCCEDACAFRGDAGREEIGQLGAEGLAQRFADFAWPAITWQRLVDAYTPGGNPAIYRFDCLHCGQAHYDLDFTEGGSHHHHHH", "soluble on expression in E. coli": "soluble"},
      {"sequence": "MDAVQELERRIVELEIQSALQEDVIAGLNAMVAELRQTLDLQQAQLRLLYQKMQDRNPDAQEPYSLRDEIPPHY", "soluble on expression in E. coli": "not soluble"},
      {"sequence": "GIPRNSSTGAKTAKSDKLKVVATNSIIADMTKAIAGDKIDLHSIVPIGQDPHEYEPLPEDAEKTSNADVIFYNGINLEDGGQAWFTKLVKNAQKTKNKDYFAVSDGIDVIYLEGASEKGKEDPHAWLNLENGIIYSKNIAKQLIAKDPKNKETYEKNLKAYVAKLEKLDKEAKSKFDAIAENKKLIVTSEGCFKYFSKAYGVPSAYIWEINTEEEGTPDQISSLIEKLKVIKPSALFVESSVDRRPMETVSKDSGIPIYSEIFTDSIAKKGKPGDSYYAMMKWNLDKISEGLAK", "soluble on expression in E. coli": "soluble"},
      {"sequence": "MGSDKIHHHHHHMCMYSATFTLEAITPVFMRGANQSKAEIRAASIKGLMRWWFRALSGSYFGNDVEGLRRVEEYVFGSTKRESRVVVEVVKEHVEERFCPLPMVWKKKKGVTTRVSQRAIAPGSKFTLLLTSDDEEVLKLACYSLIGLVYFGGIGFRCSRGAGSLKISSLKSDVQLIDLPKNKNQLGQMVNDLTVEIAKILKKTFLCDHENKNCTSYSSFWCFYLFLWGEKAELEEVYYRSNNLENERLTLLDLFEKEFKNKNNHLSNYGYRDFVFGLPRGTKKDRRASPIKVGITELSEKYHVRVSVFKTKIFKPGMNVKWDNIFVFLENIGAERIYPER", "soluble on expression in E. coli": "not soluble"},
      {"sequence": "MELTLESQGYLESLYRAYLEDPLSLPEDWRRYFSALTLEDLEDGRRERQAAPLPGEALDLGFLLKVEALRQAYRELGHLAARIDPLGRERPRPKALSLEAHGLSPEDLKRPLPPLFGAPTLGALLERLEATYLGPVGFEVAHVEPEERAWLLSRIEAPWPKPAPEVRRRVLRSLLQASLFEAFLQRKYLGAKTFSVEGLESLIPLLQEAVQEAARFGVREVVLGMAHRGRLNVLAHVVEKPFEAIFREFEELFPEGYVGDVKYHLGHSTDVETPWGPVHVSLNFNPSHLEFVNPVALGRVRAKQDRFGDRERKRGLAVLVHGDAAFIGEGIVQETLNLSQLPGYRVGGTLHVVANNQLGFTTLPSEYTSSRYPTDVAKMVGAPIFHVNAEALDELLFVLALALEYRSRYGKDVVIDLVGYRRRGHNETDEPTFTQPGMYALIAKKPEPWRVYAERLEAEGLVSEEELKAWQEAYLERLESEFARVKAEATPVVYSTLGGVWQGYVGGPDHLVPEADTAFPKEGLKNLLVRLSSVPEGFQVHPKLKRFLEARREMAEEKRPVDWATAEALAFATLAVEGHRVRLTGQDALRGTFTQRHAALYDYRTGERYIPLQHLAEGQAEVEIHNSPLSEAGVLGFEYGYSLDYPEGLVLWEAQFGDFVNVAQVYIDQFLASAEVKWNRLSGLVLLLPHGLEGQGPEHSSARLERFLQLAAKDNLQVAYPTTPAQFFHLLRRQVKRKIRKPLVVMTPKSLLRHPEVVSALEELAEGRFQKVIPERVKGARKVLLTSGKVYYDLLQKRKELQAEDVAILRLELLYPFPEAELQEALGAYPKKVPVVFVQEEPVNQGAWWYLSARFCGEIYGHPFSVVARPESPSPAVGSSKVHKLEQEELLEEAFR", "soluble on expression in E. coli": "soluble"},
      {"sequence": "MPDQISVSEFVAETLEDYKAPTASSFTRTAQCRNTAAAIEEDAVTYDDVHVNFTREEWNLLHPSQKSLYKDVMLETYWNLTVIGYTWENHHIERHCQSSRRNERFSLHCQLP", "soluble on expression in E. coli": "not soluble"},
      {"sequence": "MKETTIYGRLVMAVKNTAQVVIGGKIITLGGYESEEYFQKVASYINNKIAELSEMPGYTRQPVETKHTLLSLNVTDDYFKAKKQAEIFEQDLQQKDQEMYELKHELIALRMKIEETEKNAQEAQQQKELLEGKVKELNDEIDKLLK", "soluble on expression in E. coli": "not soluble"},
      {"sequence": "MPRIITRPFLFSPLTLCISAVASAAKTAVKRKKLFTAVLALSWAFSVTAAERIVVAGGSLTELIYAMGAGERVVGVDETTSYPPETAKLPHIGYWKQLSSEGILSLRPDSVITWQDAGPQIVLDQLRAQKVNVVTLPRVPATLQQMYANIRQLAKTLQVPEQGEALVTQISQRLERVQQNVATKKAPVKAMFILSAGGSAPQVAGKGSVADAILSLAGAENVATHQQYKSYSAESLIAANPEVIVVTSQMVDGDINRLRSIAGITHTAAWKNQRIITVDQNLILGMGPRIADVVESLHQQLWPQ", "soluble on expression in E. coli": "not soluble"},
      {"sequence": "MGSDKIHHHHHHMAQHVIEMREITKKFDDFVANDHINLDLRKGEIHALLGENGAGKSTLMNMLAGLLEPTSGSIKINGSAVTIDSPSKSAQLGIGMVHQHFMLVEAFTVTENIILGNEVVKNGILDLKKAGQEIKALSEKYGLAVDPNAKIADISVGAQQRVEILKTLYRGADILIFDEPTAVLTPSEIQELMTIMKSLVKEGKSIILITHKLDEIRSVADRVTVIRRGKSIETVEVSGTTSQDLAEMMVGRSVSFTIEKTPTKPKETILSIKDLVVNENRGIPAIKGLSLEVKAGEIIGIAGIDGNGQSELVQAITGLRKIKSGHLTIKGQDVTKLSTRKITELSVGHVPEDRHRDGLILELTMAENLALQTYYKAPLSHNGVLNYSKINEHGRHLMQEFDVRGANELIPAKGFSGGNQQKAIIAREVDRDPDLLIVSQPTRGLDVGAIEYIHKRLIAERDEGKAVLLVSFELDEILNLSDRIAVIHDGQIQGIVTPETTNKQELGILMAGGSIEREEINV", "soluble on expression in E. coli": "not soluble"},
      {"sequence": "TIVKSEIIRKLMDAKKFLLDGYIDEGVKIVLEITKSSTKSEYNWFICNLLESIDCRYMFQVLDKIGSYFDLDKCQNLKSVVECGVINNTLNEHVNKALDILVIQGKRDKLEEIGREILKNNEVSASILVAIANALRRVGDERDATTLLIEACKKGEKEACNAVNTLTVRSVM", "soluble on expression in E. coli": "soluble"},
      {"sequence": "GPGSMRRANEVAREMWAPSTWERRMSLAGQFTTFCCTHERPIKEESCAAFLMAIEVAPSTRPQYARMLRSMLEMDRTPLDMMIVGLQKKIAARSETKQARLLTKEEMNQLIRSRTDWKERVVLRLAWITASCWSEIEALIPNNFTLERDGALILDWSLAPKTARADPHRASRFVRIRGLDAFDTIKLCRTLQHSEKLTNITNAQVERALVPWNATAHSIKRGALRRAAQIVEAYNFNPHVISQLAMHVDPFDLPQNTVRYLGKHTTLLTQVSSLVAFL", "soluble on expression in E. coli": "not soluble"},
      {"sequence": "GLGGEPVIVYADRGRSVIAAVEGRVEDLVRGDMIVVQADSNGEEVVYIASSPTEPPEVYRFKGGDVERVSSINRWVVEEFRLYKPRRVEVEAEGEVVEGWYIEPEGEGRKPLILFIHGGPKGMYGYGFYGEMQLFASEGFTVAYANPRGSDGYEEEFADIRGRYGDTDYKQLMKFLDAVVEGSDVDEGKMAVTGISYGGYMTNVIVTKTSRFRAAVSENGIADWIADFWAADIGYWFDPDQIGGTPLDNLEEYVKRSPAFHAKNVNTPVMLIHSMEDYRCFIDQALAMHTALKVNGKESFLVVFTKGSHGHSILASPRHRRKRLELKLKWIKEKLG", "soluble on expression in E. coli": "not soluble"},
      {"sequence": "SEATKERVGLLDTILPPALADAGLEDCALPPESIQEAFRKAANAVKSRAASIFDHEEEDGCLADPIPETADKIIVGGDNERDTGPCLAGKGIEKLAESKQAGDLVVAGEGEEGKSCVDGLKDLDVEGIERSSEKKDQSDEDEEEEMKPILVEGFV", "soluble on expression in E. coli": "soluble"},
      {"sequence": "MGSDKIHHHHHHMRGEKNELLSWINNFVEVNNKAIDNSFEKFKSEPSNQYNLPFKNVSWYTLRKTLADNVEESKKARGCLYAVLDYNESELKELGLILNSNLHSIKKIANKIMQNAGIEFQFRFEAIMRLLLDKKNNLMLLNIPDLKRIKICLENFLSLRTTFRELVKQLLNDYNSNKESIKSENIKLGDYLNKAFSDIVLSMDKNPINLEKEIRNIIVI", "soluble on expression in E. coli": "not soluble"}
    ]}
  ]
}
